How the values were obtained:
[1] = target: HIV integrase N-terminal and catalytic core domains, IN(NTD-CCD)(F185K) (HIV); experiment: SEC-MALS
[2] = target: LEDGF/p75 integrase binding domain, LEDGF(IBD) (human); experiment: SEC-MALS
[3] = target: HIV integrase, full-length, IN(tetra) (C56S, F139D, F185H, C280S) (HIV); experiment: AUC
[4] = target: LEDGF/p75 integrase binding domain, LEDGF(IBD) (human); experiment: AUC
[5] = target: LEDGF/p75 C-terminal fragment, LEDGF(Cterm), residues 325-530 (human) (UniProt O75475); experiment: SEC-MALS
[6] = target: IN(tetra)·LEDGF(IBD) complex of two IN and one LEDGF(IBD), IN2LEDGF1 (HIV | human); experiment: AUC
[7] = target: T1, LEDGF/p75 C-terminal fragment, LEDGF(Cterm), residues 325-530 (human, UniProt O75475 325-530); experiment: SEC-MALS
T1 sequence: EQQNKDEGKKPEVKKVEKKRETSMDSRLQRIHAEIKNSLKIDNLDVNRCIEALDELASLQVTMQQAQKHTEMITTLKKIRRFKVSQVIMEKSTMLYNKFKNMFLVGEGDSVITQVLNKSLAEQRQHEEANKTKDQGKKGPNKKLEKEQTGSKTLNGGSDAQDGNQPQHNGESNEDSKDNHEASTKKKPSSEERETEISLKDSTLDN

HIV integrase N-terminal and catalytic core domains, IN(NTD-CCD)(F185K) (domain or fragment)
stoichiometry N [1]: 2
stoichiometry N [2]: 1 IN:LEDGF

HIV integrase, full-length, IN(tetra) (C56S, F139D, F185H, C280S) (enzyme)
Kd [3]: 9.3 µM
stoichiometry N [4]: 2 IN:LEDGF
stoichiometry N [2]: 2 IN:LEDGF

HIV integrase, full-length, IN(tetra)(D116N) (enzyme)
stoichiometry N [5]: 1 IN:LEDGF

IN(tetra)·LEDGF(IBD) complex of two IN and one LEDGF(IBD), IN2LEDGF1
Kd [6]: 8.9 µM

B1: HIV integrase, full-length, wild-type (enzyme)
chain: FLDGIDKAQEEHEKYHSNWRAMASDFNLPPVVAKEIVASCDKCQLKGEAMHGQVDCSPGIWQLDCTHLEGKVILVAVHVASGYIEAEVIPAETGQETAYFLLKLAGRWPVKTVHTDNGSNFTSTTVKAACWWAGIKQEFGIPYNPQSQGVIESMNKELKKIIGQVRDQAEHLKTAVQMAVFIHNFKRKGGIGGYSAGERIVDIIATDIQTKELQKQITKIQNFRVYYRDSRDPVWKGPAKLLWKGEGAVVIQDNSDIKVVPRRKAKIIRDYGKQMAGDDCVASRQDED
stoichiometry N [7]: 1 IN:LEDGF
